± gives the uncertainty stated by the source.

The data set in a line: amyloid nucleation score (Sup35N fusion, yeast selection) (log enrichment); library NNK3; higher = more nucleation; inactive = no reads after selection. A digest of the protocol: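 Peptides of 20 random codons, each fused to Sup35N, were expressed in psi-negative yeast. Cells were induced with 100 μM copper sulfate for 24 hours and grown 7 days at 30°C on medium lacking adenine and uracil, and plasmid inserts before and after selection were Illumina-sequenced. Nucleation scores are DiMSum log enrichments of output over input reads, centred on the mode score of non-aggregating sequences, and sequences under 100 input reads were excluded.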

IRTGDLVFVWYIRVTNTIPC: the amyloid nucleation score result was “inactive”.
The same measure for WCPTGEYRKCYNMSFARW: “inactive”; for WQLRQGDLGSHVRRFLQLYR: “inactive”; for SHYFK: “inactive”.
The same measure for ISQQTFNFALSMCTSPASRI: “inactive”; for FCGIYCKAINSFAVDLMPWI: “inactive”; for PSQAFS: “inactive”.
The same measure for TYQSVDTVLSSVT: “inactive”; for LYMVINYMKCVARHGTQNDR: “inactive”; for GLSNRTFSMISSLVRDTKRS: “inactive”.
For the substance SYKPLVMWLMSGVSASGLMC, the amyloid nucleation score entry is “inactive”.
The same measure for VYVHLRNLQSL: “inactive”; for ACLQRVQVKIHLGFTQTSFV: 0.487 ± 0.36.
To RFKTF belongs “inactive”; to LDEIWIKDFSMSSHVAGRHS, “inactive”; to PSSRT, “inactive”.
The same measure for CCGVLQRMKISQKVN: “inactive”; for PLTLIQDQQGRVSFSKA: “inactive”.
In the case of SSLHARRYGLHLSLLSPARA, the amyloid nucleation score result is “inactive”.
For the substance VGRHDNGVSDFAMTSSWVFF, the amyloid nucleation score result is “inactive”.
On to LSLNLSLNMKVKLYVYWGYR, for which the amyloid nucleation score entry was “inactive”.
The same measure for SMGVFAKRRKGRWNTYSIKA: “inactive”; for TTIYSEVLFRDHCVWQYPDR: “inactive”.
To IRTFIIQADSSVVPIKVFYR belongs 1.55 ± 0.099; to TGVWLRACSYEGEFGEDRKL, “inactive”; to NRSTGVKSQGIDFLLSCFLV, “inactive”.
The same measure for AKWMAFSSSSFRSCFFSFKQ: -0.804 ± 1.8.
The substance LNNWSKRVFLSPVPVWHSMS returned an amyloid nucleation score of -0.619 ± 1.9.
To SIGVTCAPNNLHGCLILYRF belongs “inactive”; to LLVTDYGFELTVQLWNKRSL, -0.155 ± 0.33.
As to MPPLNNCLDPYFLVCCNMVY, the amyloid nucleation score result was “inactive”.
The same measure for YVVSYPVGVRSNTHLLRIWR: “inactive”; for SSFFMRIVCMFYLIRKVMKC: “inactive”; for VWYVSLTMIWLGSMALGFAR: “inactive”.
TNVCLRRFLVTSLNGWVDGN: the amyloid nucleation score entry was “inactive”.
The same measure for RGLLEANMLGSSGDPSVNSG: “inactive”.
To NMSWNVCVRFK belongs 1.87 ± 0.068.
With VCGLLL, the amyloid nucleation score result was “inactive”.
To MSTLEMHYGPSFSCLYNMQD belongs 1.89 ± 0.065.
To IPSWREWVYGVINWRAGSSP belongs “inactive”; to VLCDDTCYFADVSSWSWDWF, “inactive”; to LRQQRHACAIMEVSG, “inactive”.
With MNTSDSARKSRYRARG, the amyloid nucleation score result was “inactive”.
The same measure for VSTSPNIDSLRCFCIHVKRR: “inactive”; for YVNVSACNNGMLLGWQVG: “inactive”; for GRDCICDLRMETIGDTFTGW: “inactive”.
With NFQVDNVGSYS, the amyloid nucleation score entry is “inactive”.
To LWKRCRNNEAFVLMVGRRQA belongs “inactive”; to PTKDVMVGSK, “inactive”; to IAGTIRVFYVFKAYADSPTW, “inactive”.
The same measure for PDMSNIQTFWDSRVMGRTR: “inactive”; for NCRVMEISIGKAKQSWNFVM: “inactive”.
The same measure for RVNRCLLMMVDALYQNCTLN: “inactive”; for RDLWNGFSLGA: “inactive”; for LLIMKGCAC: “inactive”.
On to CDWPPAFYQC, for which the amyloid nucleation score result is “inactive”.
The same measure for MCYFEYNDVNWRVLLLYLCK: “inactive”.
The same measure for ISGHGMKAVMSVDHSLY: “inactive”.
To YVRSHHNMNRTMVFKTCPWQ belongs “inactive”; to CRRVDFGSLSRFMGSGFNVD, “inactive”.
With HICIQDCVD, the amyloid nucleation score entry was “inactive”.
To ISINMRAGMDG belongs “inactive”; to SCYNYCRCVCPNVEASHTSL, -0.664 ± 1.1; to HINTWRLFRVGIPYVCVSDG, “inactive”.
The same measure for VNATDRSVSFLHKGPALDSN: “inactive”.
With CSNSGFTGENRVARLPRDGG, the amyloid nucleation score result was “inactive”.
In the case of SSTNPGIH, the amyloid nucleation score result was “inactive”.
Regarding NLMFVLHRTSWSNFCLKRKC, the amyloid nucleation score entry was “inactive”.
To TACRFVSSRRELRIEVLTWF belongs -0.755 ± 1.8; to YARVMSVAMSWEDQNSTKKR, 0.467 ± 0.19.
The same measure for NMVIV: “inactive”; for KLQNCVKTDLHA: “inactive”.
To MVGAPDV belongs “inactive”; to IWLTWTSEYCTIFGFVLPVV, “inactive”; to VYGSQGYRGRCFHLCYYYRS, “inactive”.
Turning to IACFMI, the amyloid nucleation score entry is “inactive”.
To ISTCMMFLF belongs “inactive”; to SKRFSLGI, “inactive”; to KIYQYPVGRLGNCSGLHVWT, “inactive”.
To LFKYLPCARRVQGRES belongs “inactive”; to NKHMGKQLAIAMAVRCAYSG, 0.326 ± 0.33; to LWTVNRECM, “inactive”.
The same measure for HITNGRGWRHGRVWSSIWFF: “inactive”; for WWIARIRMHGCCDVYLGQHR: 2.6 ± 0.087.
As for CSGHYLFILLGFDTYNGEVF, the amyloid nucleation score entry was “inactive”.
The same measure for ILDDSSWNSLTANVVVWTYF: -1.05 ± 1.3.
To VTQYMYTT belongs “inactive”; to HSYTWICVARLPHWFWTQCL, 1.71 ± 0.075; to SMKVEEIICGFAVVYIDTMY, 0.256 ± 0.28.
To RVTTMLSFVR belongs “inactive”; to MPLYCNKMGCPLGKGMHMCH, “inactive”; to MFMYCPCSLEDICLRFPTPV, “inactive”.
For GLLNRIIVLYTLLNSDIRES, the amyloid nucleation score entry is “inactive”.
The same measure for PVITSYSSIYVSCDIVW: “inactive”; for VENRYVIINSRVMGD: “inactive”.
LLVCVFFGVLKIYFIVAIRW: the amyloid nucleation score entry was “inactive”.

These data come from the supplement of paper PMC12042874.
